In IntAct's records for PubMed 25416956:

B1: Inactive peptidyl-prolyl cis-trans isomerase FKBP6 (Homo sapiens), O75344 (parent)
chain: MGGSALNQGVLEGDDAPGQSLYERLSQRMLDISGDRGVLKDVIREGAGDLVAPDASVLVKYSGYLEHMDRPFDSNYFRKTPRLMKLGEDITLWGMELGLLSMRRGELARFLFKPNYAYGTLGCPPLIPPNTTVLFEIELLDFLDCAESDKFCALSAEQQDQFPLQKVLKVAATEREFGNYLFRQNRFYDAKVRYKRALLLLRRRSAPPEEQHLVEAAKLPVLLNLSFTYLKLDRPTIALCYGEQALIIDQKNAKALFRCGQACLLLTEYQKARDFLVRAQKEQPFNHDINNELKKLASCYRDYVDKEKEMWHRMFAPCGDGSTAGES
partner: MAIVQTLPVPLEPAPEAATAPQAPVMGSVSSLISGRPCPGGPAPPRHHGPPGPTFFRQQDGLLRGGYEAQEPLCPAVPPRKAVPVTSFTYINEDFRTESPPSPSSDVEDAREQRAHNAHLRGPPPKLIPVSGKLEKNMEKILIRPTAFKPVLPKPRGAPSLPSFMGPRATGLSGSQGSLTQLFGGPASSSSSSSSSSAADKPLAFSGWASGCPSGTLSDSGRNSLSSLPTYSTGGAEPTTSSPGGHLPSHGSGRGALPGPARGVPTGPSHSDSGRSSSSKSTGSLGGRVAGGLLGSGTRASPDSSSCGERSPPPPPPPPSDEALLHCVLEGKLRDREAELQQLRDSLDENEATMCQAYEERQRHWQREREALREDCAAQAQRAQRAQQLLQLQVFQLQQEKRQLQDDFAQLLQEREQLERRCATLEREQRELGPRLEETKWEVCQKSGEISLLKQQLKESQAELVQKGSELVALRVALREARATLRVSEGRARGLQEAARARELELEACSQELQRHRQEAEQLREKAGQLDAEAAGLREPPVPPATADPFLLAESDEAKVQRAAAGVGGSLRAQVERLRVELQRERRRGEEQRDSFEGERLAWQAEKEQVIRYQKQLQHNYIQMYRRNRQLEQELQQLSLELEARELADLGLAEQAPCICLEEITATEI
B2: Keratin, type II cytoskeletal 6A (Homo sapiens), P02538 (parent)
chain: MASTSTTIRSHSSSRRGFSANSARLPGVSRSGFSSVSVSRSRGSGGLGGACGGAGFGSRSLYGLGGSKRISIGGGSCAISGGYGSRAGGSYGFGGAGSGFGFGGGAGIGFGLGGGAGLAGGFGGPGFPVCPPGGIQEVTVNQSLLTPLNLQIDPTIQRVRAEEREQIKTLNNKFASFIDKVRFLEQQNKVLETKWTLLQEQGTKTVRQNLEPLFEQYINNLRRQLDSIVGERGRLDSELRGMQDLVEDFKNKYEDEINKRTAAENEFVTLKKDVDAAYMNKVELQAKADTLTDEINFLRALYDAELSQMQTHISDTSVVLSMDNNRNLDLDSIIAEVKAQYEEIAQRSRAEAESWYQTKYEELQVTAGRHGDDLRNTKQEIAEINRMIQRLRSEIDHVKKQCANLQAAIADAEQRGEMALKDAKNKLEGLEDALQKAKQDLARLLKEYQELMNVKLALDVEIATYRKLLEGEECRLNGEGVGQVNISVVQSTVSSGYGGASGVGSGLGLGGGSSYSYGSGLGVGGGFSSSSGRAIGGGLSSVGGGSSTIKYTTTSSSSRKSYKH
partner: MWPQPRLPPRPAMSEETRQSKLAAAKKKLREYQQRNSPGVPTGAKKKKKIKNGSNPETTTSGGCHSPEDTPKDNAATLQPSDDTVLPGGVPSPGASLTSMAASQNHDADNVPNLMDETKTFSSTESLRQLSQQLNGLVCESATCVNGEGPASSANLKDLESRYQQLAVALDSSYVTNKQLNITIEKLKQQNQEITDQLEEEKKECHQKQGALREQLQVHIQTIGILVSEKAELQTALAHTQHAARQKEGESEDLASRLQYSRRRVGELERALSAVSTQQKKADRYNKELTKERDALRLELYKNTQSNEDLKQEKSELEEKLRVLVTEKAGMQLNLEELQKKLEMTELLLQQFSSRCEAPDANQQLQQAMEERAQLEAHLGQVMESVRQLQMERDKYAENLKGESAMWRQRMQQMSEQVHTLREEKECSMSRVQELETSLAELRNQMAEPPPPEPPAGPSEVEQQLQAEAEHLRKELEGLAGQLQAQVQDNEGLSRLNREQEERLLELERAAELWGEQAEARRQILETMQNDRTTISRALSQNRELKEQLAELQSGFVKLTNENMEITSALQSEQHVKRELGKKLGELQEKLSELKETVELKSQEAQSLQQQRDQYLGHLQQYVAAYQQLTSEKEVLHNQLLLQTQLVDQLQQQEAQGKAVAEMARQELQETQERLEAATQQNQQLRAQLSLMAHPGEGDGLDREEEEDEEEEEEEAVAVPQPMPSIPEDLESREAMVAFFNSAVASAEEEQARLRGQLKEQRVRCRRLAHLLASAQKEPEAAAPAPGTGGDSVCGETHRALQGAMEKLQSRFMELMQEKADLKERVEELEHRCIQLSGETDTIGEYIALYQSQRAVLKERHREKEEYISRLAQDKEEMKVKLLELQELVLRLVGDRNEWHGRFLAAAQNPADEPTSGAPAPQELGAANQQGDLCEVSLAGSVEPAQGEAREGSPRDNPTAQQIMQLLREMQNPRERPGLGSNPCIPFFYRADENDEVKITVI
B3: X-linked retinitis pigmentosa GTPase regulator (Homo sapiens), Q92834 (parent)
chain: MREPEELMPDSGAVFTFGKSKFAENNPGKFWFKNDVPVHLSCGDEHSAVVTGNNKLYMFGSNNWGQLGLGSKSAISKPTCVKALKPEKVKLAACGRNHTLVSTEGGNVYATGGNNEGQLGLGDTEERNTFHVISFFTSEHKIKQLSAGSNTSAALTEDGRLFMWGDNSEGQIGLKNVSNVCVPQQVTIGKPVSWISCGYYHSAFVTTDGELYVFGEPENGKLGLPNQLLGNHRTPQLVSEIPEKVIQVACGGEHTVVLTENAVYTFGLGQFGQLGLGTFLFETSEPKVIENIRDQTISYISCGENHTALITDIGLMYTFGDGRHGKLGLGLENFTNHFIPTLCSNFLRFIVKLVACGGCHMVVFAAPHRGVAKEIEFDEINDTCLSVATFLPYSSLTSGNVLQRTLSARMRRRERERSPDSFSMRRTLPPIEGTLGLSACFLPNSVFPRCSERNLQESVLSEQDLMQPEEPDYLLDEMTKEAEIDNSSTVESLGETTDILNMTHIMSLNSNEKSLKLSPVQKQKKQQTIGELTQDTALTENDDSDEYEEMSEMKEGKACKQHVSQGIFMTQPATTIEAFSDEEVGNDTGQVGPQADTDGEGLQKEVYRHENNNGVDQLDAKEIEKESDGGHSQKESEAEEIDSEKETKLAEIAGMKDLREREKSTKKMSPFFGNLPDRGMNTESEENKDFVKKRESCKQDVIFDSERESVEKPDSYMEGASESQQGIADGFQQPEAIEFSSGEKEDDEVETDQNIRYGRKLIEQGNEKETKPIISKSMAKYDFKCDRLSEIPEEKEGAEDSKGNGIEEQEVEANEENVKVHGGRKEKTEILSDDLTDKAEDHEFSKTEELKLEDVDEEINAENVESKKKTVGDDESVPTGYHSKTEGAERTNDDSSAETIEKKEKANLEERAICEYNENPKGYMLDDADSSSLEILENSETTPSKDMKKTKKIFLFKRVPSINQKIVKNNNEPLPEIKSIGDQIILKSDNKDADQNHMSQNHQNIPPTNTERRSKSCTIL
partner: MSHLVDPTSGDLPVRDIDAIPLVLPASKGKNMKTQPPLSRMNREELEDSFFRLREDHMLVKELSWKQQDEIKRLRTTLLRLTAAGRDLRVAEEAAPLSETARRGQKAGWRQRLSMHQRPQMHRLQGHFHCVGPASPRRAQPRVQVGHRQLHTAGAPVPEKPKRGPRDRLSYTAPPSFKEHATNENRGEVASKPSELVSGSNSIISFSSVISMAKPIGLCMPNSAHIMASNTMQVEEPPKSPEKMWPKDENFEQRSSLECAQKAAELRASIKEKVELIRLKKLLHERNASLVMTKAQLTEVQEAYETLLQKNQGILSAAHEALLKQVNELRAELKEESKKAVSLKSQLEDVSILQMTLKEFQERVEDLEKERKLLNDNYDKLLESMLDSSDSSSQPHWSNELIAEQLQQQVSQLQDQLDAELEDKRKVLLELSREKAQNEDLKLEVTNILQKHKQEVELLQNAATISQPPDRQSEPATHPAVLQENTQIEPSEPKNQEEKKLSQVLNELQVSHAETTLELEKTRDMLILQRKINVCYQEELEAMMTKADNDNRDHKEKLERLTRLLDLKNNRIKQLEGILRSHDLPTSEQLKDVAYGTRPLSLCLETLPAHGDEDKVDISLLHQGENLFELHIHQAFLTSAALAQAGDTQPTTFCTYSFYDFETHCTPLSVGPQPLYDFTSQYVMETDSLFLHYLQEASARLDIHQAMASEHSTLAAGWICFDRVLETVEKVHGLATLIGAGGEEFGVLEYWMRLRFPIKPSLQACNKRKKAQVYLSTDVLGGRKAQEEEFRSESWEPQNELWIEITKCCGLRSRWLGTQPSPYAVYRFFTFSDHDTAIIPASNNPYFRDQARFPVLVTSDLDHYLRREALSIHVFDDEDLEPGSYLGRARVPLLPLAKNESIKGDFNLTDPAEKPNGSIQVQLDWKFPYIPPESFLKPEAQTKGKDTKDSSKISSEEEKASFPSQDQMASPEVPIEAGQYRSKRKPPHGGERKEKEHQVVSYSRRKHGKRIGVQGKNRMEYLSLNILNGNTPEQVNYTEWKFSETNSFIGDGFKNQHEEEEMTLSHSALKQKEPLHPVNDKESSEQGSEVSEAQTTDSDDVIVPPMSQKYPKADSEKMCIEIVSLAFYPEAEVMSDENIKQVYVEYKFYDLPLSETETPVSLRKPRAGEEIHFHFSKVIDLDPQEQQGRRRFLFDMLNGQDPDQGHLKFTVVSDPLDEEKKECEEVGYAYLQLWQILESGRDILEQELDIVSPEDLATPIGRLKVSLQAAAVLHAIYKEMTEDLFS

Variants of: B1
Conditions: with lzts2_human LZTS2, Q9BRK4

effect of a mutation on the interaction | Variant
disrupting interaction | F72L

Variants of: B2
Conditions: with goga2_human GOLGA2, Q08379

effect of a mutation on the interaction | Variant
disrupting interaction | N171K

Variants of: B3
Conditions: with rpgr1_human RPGRIP1, Q96KN7

effect of a mutation on the interaction | Variant
disrupting interaction | T255I

Variants of: B3
Conditions: with rpgr1_human RPGRIP1, Q96KN7
Remark: another data set of the same source

effect of a mutation on the interaction | Variant
disrupting interaction | H98Q
